Results: publication PMC8041291

Columns and labels:
[1] = test system: Nterm (position 1, -----ECG---); experiment: potentiometry; settings: 25 °C; 0.1 M (4 mM HNO3 + 96 mM KNO3); none (4 mM HNO3 / 96 mM KNO3); metal-free peptide, reduced thiols, argon atmosphere, 0.5-1.5 mM ligand
[2] = test system: Cys2 (position 2, ----ECG----); experiment: potentiometry; settings: 25 °C; 0.1 M (4 mM HNO3 + 96 mM KNO3); none (4 mM HNO3 / 96 mM KNO3); metal-free peptide, reduced thiols, argon atmosphere, 0.5-1.5 mM ligand
[3] = test system: Cterm (position 3, ---ECG-----); experiment: potentiometry; settings: 25 °C; 0.1 M (4 mM HNO3 + 96 mM KNO3); none (4 mM HNO3 / 96 mM KNO3); metal-free peptide, reduced thiols, argon atmosphere, 0.5-1.5 mM ligand
[4] = test system: Glu1 (position 1, -----ECG---); experiment: potentiometry; settings: 25 °C; 0.1 M (4 mM HNO3 + 96 mM KNO3); none (4 mM HNO3 / 96 mM KNO3); metal-free peptide, reduced thiols, argon atmosphere, 0.5-1.5 mM ligand
[5] = biological target: Cys2; experiment: NMR; settings: metal-free PC2; cited from earlier work
[6] = biological target: Cys1; experiment: NMR; settings: metal-free PC2; cited from earlier work
[7] = biological target: Nterm1; experiment: NMR; settings: metal-free PC2; cited from earlier work
[8] = biological target: Glu1; experiment: potentiometry; settings: 25 °C; 0.1 M (4 mM HNO3 + 96 mM KNO3); none (4 mM HNO3 / 96 mM KNO3); metal-free peptide, reduced thiols, argon atmosphere, 0.5-1.5 mM ligand
[9] = biological target: Cterm5; experiment: potentiometry; settings: 25 °C; 0.1 M (4 mM HNO3 + 96 mM KNO3); none (4 mM HNO3 / 96 mM KNO3); metal-free peptide, reduced thiols, argon atmosphere, 0.5-1.5 mM ligand
[10] = biological target: Cys2; experiment: potentiometry; settings: 25 °C; 0.1 M (4 mM HNO3 + 96 mM KNO3); none (4 mM HNO3 / 96 mM KNO3); metal-free peptide, reduced thiols, argon atmosphere, 0.5-1.5 mM ligand
[11] = biological target: Cys1; experiment: potentiometry; settings: 25 °C; 0.1 M (4 mM HNO3 + 96 mM KNO3); none (4 mM HNO3 / 96 mM KNO3); metal-free peptide, reduced thiols, argon atmosphere, 0.5-1.5 mM ligand
[12] = biological target: Nterm1; experiment: potentiometry; settings: 25 °C; 0.1 M (4 mM HNO3 + 96 mM KNO3); none (4 mM HNO3 / 96 mM KNO3); metal-free peptide, reduced thiols, argon atmosphere, 0.5-1.5 mM ligand
[13] = biological target: Glu2; experiment: potentiometry; settings: 25 °C; 0.1 M (4 mM HNO3 + 96 mM KNO3); none (4 mM HNO3 / 96 mM KNO3); metal-free peptide, reduced thiols, argon atmosphere, 0.5-1.5 mM ligand

Molecule	pKa [1]	pKa [2]	pKa [3]	pKa [4]	pKa [5]	pKa [6]	pKa [7]	pKa [8]	pKa [9]	pKa [10]	pKa [11]	pKa [12]	pKa [13]
Glutathione (GSH, reduced) (not applicable (commercial reduced L-glutathione, Sigma-Aldrich))	9.65	8.76	3.64	1.95									
ECECG					9.40	9.53	10.01	2.43	4.30	8.59	9.69	10.25	3.17
